# Measured values: patent publication US20240317834A1, “COMPOSITIONS AND METHODS FOR NEUROLOGICAL DISEASES” (CODA BIOTHERAPEUTICS, INC., priority 2020, published 2024)
# B1: CODA1056: engineered chimeric LGIC receptor, R101F, Y115E, Y210W in SEQ ID NO: 33 (protein)
# chain: MRCSPGGVWLALAASLLHVSLQGEFQRKLYKELVKNYNPLERPVANDSQPLTVYFSLSLLQIMDVDEKNQVLTTNIWLQMSWTDHYLQWNVSEYPGVKTVFFPDGQIWKPDILLENSADERFDATFHTNVLVNSSGHCQYLPPGIFKSSCPMDLKNFPMDVQTCKLKFGSWSYGGWSLDLQMQEADISGYIPNGEWDLVGIPGKRSERFWECCKEPYPDVTFTVTMRRRMGYYLIQMYIPSLLIVILSWISFWINMDAAPARVGLGITTVLTMTTQSSGSRASLPKVSYVKAIDIWMAVCLLFVFSALLEYAAVNFVSRQHKELLRFRRKRRHHKSPMLNLFQEDEAGEGRFNFSAYGMGPACLQAKDGISVKGANNSNTTNPPPAPSKSPEEMRKLFIQRAKKIDKISRIGFPMAFLIFNMFYWIIYKIVRREDVHNQ
# modifications: synthetic sequence of chimeric LGIC
# Experiments:
# Lenti-X 293T cells = assay: YFP fluorescence quenching anion reporter plate reader assay of engineered receptors stimulated with acetylcholine or a non-native ligand; format: cell-based
# Procedure, shortened: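 Lenti-X 293T cells carrying a YFP anion reporter were transiently transfected with channel DNA and assayed the next day in HEPES-buffered ECS at pH 7.2. Ligand (acetylcholine or non-native ligand) was added in NaI-substituted ECS. Percent quench was the mean of the last 10 s relative to the 15 s pre-addition baseline.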
# rat DRG neurons = assay: Rheobase shift and evoked action potentials in rat DRG neurons (current clamp); format: cell-based
# Procedure, shortened: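 Rat DRG neurons expressing engineered receptors, whole-cell current clamp at RT. ECS at pH 7.3; K-gluconate internal at pH 7.2. 500 ms steps from −200 to 700 pA with and without ligand. Rheobase taken as the smallest depolarising step that fires an action potential; input resistance from negative steps.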
molecule,measurement,setting,value
B1,YFP fluorescence quenching using CNL001,"Lenti-X 293T cells; 1 nM CNL001, first column",−8.104%
same,YFP fluorescence quenching using CNL001,"Lenti-X 293T cells; 1 nM CNL001, second column",−12.153%
same,YFP fluorescence quenching using TC-5619/Bradanicline,Lenti-X 293T cells; 1 nM brd,−7.894%
same,YFP fluorescence quenching using TC-5619/Bradanicline,Lenti-X 293T cells; 3 nM brd,−11.812%
same,YFP fluorescence quenching using CNL001,"Lenti-X 293T cells; 10 nM CNL001, first column",−10.462%
same,YFP fluorescence quenching using CNL001,"Lenti-X 293T cells; 10 nM CNL001, second column",−4.735%
same,YFP fluorescence quenching using TC-5619/Bradanicline,Lenti-X 293T cells; 10 nM brd,36.211%
same,YFP fluorescence quenching using TC-5619/Bradanicline,Lenti-X 293T cells; 30 nM brd,40.624%
same,YFP fluorescence quenching using CNL001,"Lenti-X 293T cells; 50 nM CNL001, first column",−8.617%
same,YFP fluorescence quenching using CNL001,"Lenti-X 293T cells; 50 nM CNL001, second column",−1.606%
same,YFP fluorescence quenching using ABT-126,Lenti-X 293T cells; 50 nM abt,−20.96%
same,YFP fluorescence quenching using CNL001,"Lenti-X 293T cells; 100 nM CNL001, first column",−1.243%
same,YFP fluorescence quenching using CNL001,"Lenti-X 293T cells; 100 nM CNL001, second column",1.838%
same,YFP fluorescence quenching using ABT-126,Lenti-X 293T cells; 100 nM abt,−21.95%
same,YFP fluorescence quenching using TC-5619/Bradanicline,Lenti-X 293T cells; 100 nM brd,65.869%
same,YFP fluorescence quenching using ABT-126,Lenti-X 293T cells; 300 nM abt,−10.96%
same,YFP fluorescence quenching using TC-5619/Bradanicline,Lenti-X 293T cells; 300 nM brd,59.661%
same,YFP fluorescence quenching using CNL001,"Lenti-X 293T cells; 1 uM CNL001, first column",−0.567%
same,YFP fluorescence quenching using CNL001,"Lenti-X 293T cells; 1 uM CNL001, second column",4.663%
same,YFP fluorescence quenching using ABT-126,Lenti-X 293T cells; 1 uM abt,10.79%
same,"percent quench of YFP fluorescence, 30 nM TC-6683",Lenti-X 293T cells; TC-6683 30 nM,−19.889%
same,"percent quench of YFP fluorescence, 300 nM TC-6683",Lenti-X 293T cells; TC-6683 300 nM,−22.443%
same,"percent quench of YFP fluorescence, 3 uM TC-6683",Lenti-X 293T cells; TC-6683 3 uM,−12.623%
same,"percent quench of YFP fluorescence, 30 uM TC-6683",Lenti-X 293T cells; TC-6683 30 uM,−10.728%
same,"percent quench of YFP fluorescence, 100 uM TC-6683",Lenti-X 293T cells; TC-6683 100 uM,−10.959%
same,"percent quench of YFP fluorescence, 100 uM ach",Lenti-X 293T cells; acetylcholine 100 uM,−20.55%
same,"percent quench of YFP fluorescence, 300 uM ach",Lenti-X 293T cells; acetylcholine 300 uM,−19.32%
same,"percent quench of YFP fluorescence, 500 uM ach",Lenti-X 293T cells; acetylcholine 500 uM,−19.75%
same,"percent quench of YFP fluorescence, 1 mM ach",Lenti-X 293T cells; acetylcholine 1 mM,−14.08%
same,"percent quench of YFP fluorescence, 3 mM ach",Lenti-X 293T cells; acetylcholine 3 mM,14.07%
same,"percent quench of YFP fluorescence, 10 mM ach",Lenti-X 293T cells; acetylcholine 10 mM,25.7%
same,"Rheobase Shift; Rat DRG Neurons, +TC-5619 @ EC90",rat DRG neurons; +TC-5619 @ EC90,632 ± 43 pA
same,"Rheobase Shift; Rat DRG Neurons, Baseline","rat DRG neurons; Baseline, no ligand",114 ± 12 pA
